Each block holds one molecule with its values, some of them ahead of it.
Key:
[1] = target: T1, Akt1 (Homo sapiens, UniProt P31749); assay: GST-Akt1 pull-down of HA-tagged wild type FAK or FRNK from transfected Caco-2 cell lysate; type: binding; set-up: made in house; host or cells: bacteria (pGEX-4T1; E. coli BL21 is printed only for the GST-FAK fusions); conditions: lysate of transiently transfected Caco-2 cells; 1 of 2 similar experiments
Protocol: Glutathione-Sepharose 4B beads (15 μl) were washed twice in ice-cold PBS and resuspended in 400 μl PBS. Bacterial lysate containing GST-Akt1, GST-FAK-NT1 (truncations), or GST proteins (gift of Dr. J. Chen) were then added in excess and incubated with the beads for 1 h. Glutathione-Sepharose 4B beads coupled to GST-Akt1, GST-FAK (truncations), or GST were then washed twice with PBS by centrifuge for 5 min at 500 g and incubated with nontransfected or transfected Caco-2 cell lysates (600-800 μg protein) overnight at 4° C. Transfected Caco-2 cells received plasmids encoding HA-WT-FAK or HA-FRNK. Nontransfected and transfected Caco-2 cell lysates were prepared in cell lysis buffer lysis buffer [50 mM Tris (pH 7.4), 150 mM NaCl, 1% Triton X-100, 1% sodium deoxycholate, 0.1% SDS, 1 mM EDTA, 1 mM phenylmethylsulfonyl fluoride, 1 mM Na3VO4, 50 mM NaF, 10 mM sodium pyrophosphate, […] (pH 7.4)]. Following incubation, beads were washed twice with lysis buffer without SDS and protease inhibitors. Proteins were eluted with Laemmli SDS sample dilution buffer, separated by 10% SDS-PAGE, and immunoblotted with GST, Akt1 (Cell Signaling Technology, Danvers, Mass.), or HA monoclonal antibodies (Covance, Chantilly, Va.). […]

[2] = target: T1, Akt1; assay: GST-FAK truncation/mutant fusion protein pull-down of Akt1 (cell lysate or purified Akt1); type: binding; set-up: endogenous in cells; host or cells: Caco-2 or SW620 cell lysate; conditions: for Akt1 pulled down by GST-FAK truncations: GST pull-down, N=4, p<0.05
Protocol: Glutathione-Sepharose 4B beads (15 μl) were washed twice in ice-cold PBS and resuspended in 400 μl PBS. Bacterial lysate containing GST-Akt1, GST-FAK-NT1 (truncations), or GST proteins (gift of Dr. J. Chen) were then added in excess and incubated with the beads for 1 h. Glutathione-Sepharose 4B beads coupled to GST-Akt1, GST-FAK (truncations), or GST were then washed twice with PBS by centrifuge for 5 min at 500 g and incubated with nontransfected or transfected Caco-2 cell lysates (600-800 μg protein) overnight at 4° C. Transfected Caco-2 cells received plasmids encoding HA-WT-FAK or HA-FRNK. Nontransfected and transfected Caco-2 cell lysates were prepared in cell lysis buffer lysis buffer [50 mM Tris (pH 7.4), 150 mM NaCl, 1% Triton X-100, 1% sodium deoxycholate, 0.1% SDS, 1 mM EDTA, 1 mM phenylmethylsulfonyl fluoride, 1 mM Na3VO4, 50 mM NaF, 10 mM sodium pyrophosphate, […] (pH 7.4)]. Following incubation, beads were washed twice with lysis buffer without SDS and protease inhibitors. Proteins were eluted with Laemmli SDS sample dilution buffer, separated by 10% SDS-PAGE, and immunoblotted with GST, Akt1 (Cell Signaling Technology, Danvers, Mass.), or HA monoclonal antibodies (Covance, Chantilly, Va.).
In some cases Glutathione-Sepharose-4B beads (30 μl) (GE Healthcare Life Science, Pittsburgh, Pa.) were conjugated with GST (expressed protein from a 250 μl bacterial pellet per 30 μl of beads) or recombinant GST-tagged (expressed protein from a 3 ml bacterial pellet per 30 μl of beads) (24) and incubated with lysate from 2×10^7 Caco-2 or SW620 cells (1500 μg protein) or purified Akt1 (0.35 μg) (Origene, Rockville, Md.) overnight at 4° C. […]
Protein concentrations were determined by bicinchoninic acid (BCA) protein assay (Pierce, Rockford, Ill.). […] Membranes were visualized by the infrared fluorescent IRDye system (LI-COR Biosciences, Lincoln, Nebr.) and analyzed on an Odyssey scanner (LI-COR Biosciences, Lincoln, Nebr.) within the linear range. […]

[3] = test system: CT-26 cells; assay: Pressure-induced adhesion of CT-26 cells inducibly expressing GFP-FAK-NT1; type: cell-based, murine
Protocol: A stable CT-26 cell line was generated per ARIAD-ARGENT protocols and GFP-FAK-NT1 expression was induced using 50 nM of the provided non-immunosuppressive rapalog, AP21967 with an equal volume of ethanol used as the control vehicle. Forty eight hours after induction, the cells were trypsinized for adhesion experiments.
Experimental pressure conditions were controlled using an airtight box with inlet and outlet valves, thumb screws, a pressure gauge and an O-ring for an airtight (11, 25). The box was prewarmed to 37° C. for 1 hour to […] minimize temperature fluctuations experienced by the cells. The gas used for pressurization was a filtered 5% CO2/95% air mixture consistent with the atmosphere in which the cells were routinely cultured. The temperature was maintained within ±2° C. and the pressure within ±1.5 mmHg.
100,000 Caco-2 or CT-26 cells were seeded to collagen I coated 6-well plates under ambient or increased pressure conditions for 30 minutes. Non-adherent cells were washed away, and the remainder fixed with 0.01 M NaIO4, 0.75 M lysine, 0.0375 M sodium phosphate buffer, pH 7.4, and 2% paraformaldehyde on ice for 1 hour. The adherent cells were counted microscopically in at least 20 random high power fields per well under a fluorescent microscope. […]

[4] = test system: Caco-2 cells; assay: Pressure-induced adhesion of Caco-2 cells transiently expressing GFP-FAK-NT1; type: cell-based, human; conditions: Caco-2, transient expression, vs GFP control
Protocol: Caco-2 cells were plated on p100 dishes at 30-35% confluence one day prior to transfection. The constructed or empty plasmids were transfected into Caco-2 cells at final concentrations of 2 μg/ml plasmid and 5 μg/ml Lipofectamine 2000. Five hours after transfection, the medium was replaced with 15 ml pre-warmed Caco-2 media without antibiotics. Forty eight hours after DNA transfection, the cells were trypsinized for adhesion or pull-down experiments.
Experimental pressure conditions were controlled using an airtight box with inlet and outlet valves, thumb screws, a pressure gauge and an O-ring for an airtight (11, 25). The box was prewarmed to 37° C. for 1 hour to […] minimize temperature fluctuations experienced by the cells. […]
100,000 Caco-2 or CT-26 cells were seeded to collagen I coated 6-well plates under ambient or increased pressure conditions for 30 minutes. […] The adherent cells were counted microscopically in at least 20 random high power fields per well under a fluorescent microscope.
To test whether this interaction of NT1 with Akt1 might have biological effects, we evaluated the effect of overexpressing NT1 in Caco-2 cells on the adhesive response to increased extracellular pressure, which requires FAK-Akt1 interaction. […]

T1 sequence (P31749 whole entry, the tested form may be a part): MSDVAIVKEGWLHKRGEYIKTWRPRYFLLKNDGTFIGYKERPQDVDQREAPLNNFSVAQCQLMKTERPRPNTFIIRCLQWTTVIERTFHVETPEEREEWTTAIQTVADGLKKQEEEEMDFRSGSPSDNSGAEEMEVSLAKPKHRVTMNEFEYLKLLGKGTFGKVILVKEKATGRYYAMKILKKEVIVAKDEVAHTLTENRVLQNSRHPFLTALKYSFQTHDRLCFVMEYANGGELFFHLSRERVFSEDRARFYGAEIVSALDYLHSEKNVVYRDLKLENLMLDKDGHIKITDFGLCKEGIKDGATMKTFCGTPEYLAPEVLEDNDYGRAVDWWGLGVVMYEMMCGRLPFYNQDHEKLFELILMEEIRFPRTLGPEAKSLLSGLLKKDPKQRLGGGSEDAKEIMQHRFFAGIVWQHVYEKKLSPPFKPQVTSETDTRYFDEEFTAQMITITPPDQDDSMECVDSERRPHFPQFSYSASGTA

HA-tagged protein in eluate after passage over GST-Akt1 beads (Western blot for HA) [1]: enriched
B1: HA-conjugated wild type FAK: HA-tagged wild type FAK expressed in Caco-2 cells (protein)
chain: MAAAYLDPNLNHTPNSSTKTHLGTGMERSPGAMERVLKVFHYFESNSEPTTWASIIRHGDATDVRGIIQKIVDSHKVKHVACYGFRLSHLRSEEVHWLHVDMGVSSVREKYELAHPPEEWKYELRIRYLPKGFLNQFTEDKPTLNFFYQQVKSDYMLEIADQVDQEIALKLGCLEIRRSYWEMRGNALEKKSNYEVLEKDVGLKRFFPKSLLDSVKAKTLRKLIQQTFRQFANLNREESILKFFEILSPVYRFDKECFKCALGSSWIISVELAIGPEEGISYLTDKGCNPTHLADFTQVQTIQYSNSEDKDRKGMLQLKIAGAPEPLTVTAPSLTIAENMADLIDGYCRLVNGTSQSFIIRPQKEGERALPSIPKLANSEKQGMRTHAVSVSETDDYAEIIDEEDTYTMPSTRDYEIQRERIELGRCIGEGQFGDVHQGIYMSPENPALAVAIKTCKNCTSDSVREKFLQEALTMRQFDHPHIVKLIGVITENPVWIIMELCTLGELRSFLQVRKYSLDLASLILYAYQLSTALAYLESKRFVHRDIAARNVLVSSNDCVKLGDFGLSRYMEDSTYYKASKGKLPIKWMAPESINFRRFTSASDVWMFGVCMWEILMHGVKPFQGVKNNDVIGRIENGERLPMPPNCPPTLYSLMTKCWAYDPSRRPRFTELKAQLSTILEEEKAQQEERMRMESRRQATVSWDSGGSDEAPPKPSRPGYPSPRSSEGFYPSPQHMVQTNHYQVSGYPGSHGITAMAGSIYPGQASLLDQTDSWNHRPQEIAMWQPNVEDSTVLDLRGIGQVLPTHLMEERLIRQQQEMEEDQRWLEKEERFLKPDVRLSRGSIDREDGSLQGPIGNQHIYQPVGKPDPAAPPKKPPRPGAPGHLGSLASLSSPADSYNEGVKLQPQEISPPPTANLDRSNDKVYENVTGLVKAVIEMSSKIQPAPPEEYVPMVKEVGLALRTLLATVDETIPLLPASTHREIEMAQKLLNSDLGELINKMKLAQQYVMTSLQQEYKKQMLTAAHALAVDAKNLLDVIDQARLKMLGQTRPH
modifications: left off: small tags and cut ends
notes: HA-tagged wild type FAK expressed in Caco-2 cells

Akt1 pulled down by GST-FAK truncations [2]: significantly more Akt1
B2: NT1-2: recombinant GST-FAK truncated peptide, residues 61-126 (protein, listed as Homo sapiens)
chain: ATDVRGIIQKIVDSHKVKNVACYGFRLSHLRSEEVHWLHVDMGVSSVREKYELAHPPEEWKYELRI
modifications: GST tag

B3: GFP-FAK-NT1: GFP fusion of FAK-NT1 (residues 1-126) expressed transiently or inducibly in cells (protein)
chain: MAAAYLDPNLNHTPNSSTKTHLGTGMERSPGAMERVLKVFHYFESNSEPTTWASIIRHGDATDVRGIIQKIVDSHKVKNVACYGFRLSHLRSEEVHWLHVDMGVSSVREKYELAHPPEEWKYELRI
modifications: left off: large carriers
notes: GFP fusion of FAK-NT1 (residues 1-126) expressed transiently or inducibly in cells
Stimulation of cell adhesion by increased pressure ([3]; CT26, expression induced 48 hours before, 15 mmHg 30 minutes, vs GFP control): prevented the stimulation of cell adhesion by increased pressure | Basal levels of adhesion ([3]; CT26, inducible expression): reduced | Pressure-induced adhesion ([4]; 15 mmHg increased pressure 30 minutes): inhibited | Basal levels of adhesion ([4]; ambient pressure): reduced

Akt1 pulled down by GST-FAK truncations [2]: significantly more Akt1 | Akt1 pulled down by GST-FAK-NT1-conjugated Sepharose beads ([2]; overnight incubation with either cell lysate or purified Akt1): pulled down Akt1
B4: NT1: recombinant GST-FAK truncated peptide, FAK residues 1-126 (SEQ ID NO:3) (protein)
chain: MAAAYLDPNLNHTPNSSTKTHLGTGMERSPGAMERVLKVFHYFESNSEPTTWASIIRHGDATDVRGIIQKIVDSHKVKNVACYGFRLSHLRSEEVHWLHVDMGVSSVREKYELAHPPEEWKYELRI
modifications: left off: large carriers

HA-tagged protein in eluate after passage over GST-Akt1 beads (Western blot for HA) [1]: markedly reduced
B5: HA-conjugated FRNK: HA-tagged FAK-related non-kinase, 67 kDa segment from the COOH-terminal region of FAK (protein)
chain: MESRRQATVSWDSGGSDEAPPKPSRPGYPSPRSSEGFYPSPQHMVQTNHYQVSGYPGSHGITAMAGSIYPGQASLLDQTDSWNHRPQEIAMWQPNVEDSTVLDLRGIGQVLPTHLMEERLIRQQQEMEEDQRWLEKEERFLKPDVRLSRGSIDREDGSLQGPIGNQHIYQPVGKPDPAAPPKKPPRPGAPGHLGSLASLSSPADSYNEGVKLQPQEISPPPTANLDRSNDKVYENVTGLVKAVIEMSSKIQPAPPEEYVPMVKEVGLALRTLLATVDETIPLLPASTHREIEMAQKLLNSDLGELINKMKLAQQYVMTSLQQEYKKQMLTAAHALAVDAKNLLDVIDQARLKMLGQTRPH
modifications: left off: small tags and cut ends
notes: HA-tagged FAK-related non-kinase, 67 kDa segment from the COOH-terminal region of FAK

Source: patent US11452764B2, “Inhibiting FAK-AKT interaction to inhibit metastasis” (Board of Trustees of Michigan State University, priority 2017, dated 2022)
